Source: IntAct's records for PubMed 17360471

Target: sgk1_human SGK1 (UniProt O00141)
Sequence (O00141 whole entry): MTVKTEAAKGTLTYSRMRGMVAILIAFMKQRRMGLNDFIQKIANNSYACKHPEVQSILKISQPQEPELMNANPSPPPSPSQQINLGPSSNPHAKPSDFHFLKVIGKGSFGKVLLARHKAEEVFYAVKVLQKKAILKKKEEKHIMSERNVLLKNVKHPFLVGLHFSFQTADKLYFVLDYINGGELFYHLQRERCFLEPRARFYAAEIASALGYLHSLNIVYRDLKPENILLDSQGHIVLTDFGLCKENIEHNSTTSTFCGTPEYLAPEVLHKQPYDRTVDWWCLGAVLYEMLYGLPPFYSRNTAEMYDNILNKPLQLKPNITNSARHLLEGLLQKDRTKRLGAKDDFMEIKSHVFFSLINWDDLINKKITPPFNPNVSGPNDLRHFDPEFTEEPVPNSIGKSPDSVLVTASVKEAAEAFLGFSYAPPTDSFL

effect of a mutation on the interaction	Substance
decreasing interaction strength	Serine/threonine-protein kinase WNK4 (Mus musculus), Q80UE6 Q562E
decreasing interaction strength	Serine/threonine-protein kinase WNK4 (Mus musculus), Q80UE6 S1169D
